Results on one molecule are retold here after patent WO2017015008A1 (dated 2017).

The target in experiment [1] is T1, human HER3 ECD as shown in SEQ ID NO: 23 (human, UniProt P21860 20-643).
T1 construct: also called soluble HER3-ECD
Briefly: SPR (Biacore), antibody captured on Protein A, soluble HER3-ECD as analyte. On the technique in general: SPR reads the build-up and loss of mass on a sensor chip optically.

Experiment [2] deals with T2, Rhesus mature HER3-ECD (rhesus monkey, UniProt H9ERZ8 20-643).
T2 construct: extracellular domain; Bought protein; also called Rhesus HER3-ECD; cynomolgus monkey HER3-ECD
The experiment is described as above.

Experiment [3] deals with T3, mouse mature HER3 ECD as shown in SEQ ID NO: 24 (mouse, UniProt Q61526 20-641).
T3 construct: also called mouse HER3 ECD; mouse soluble HER3-ECD
The experiment is described as above.

Experiment [4] concerns the target T1, human HER3 ECD as shown in SEQ ID NO: 23. Briefly: SPR (Biacore), antibody captured on Protein A, soluble HER3-ECD as analyte, 37°C, 1:1 model.
For experiment [5], the target named is T2, Rhesus mature HER3-ECD. The experiment is described as above.
The target of experiment [6] is T3, mouse mature HER3 ECD as shown in SEQ …. Described as above.

T1 sequence (P21860 other isoform, or with tags, fused parts or gaps, form in doubt): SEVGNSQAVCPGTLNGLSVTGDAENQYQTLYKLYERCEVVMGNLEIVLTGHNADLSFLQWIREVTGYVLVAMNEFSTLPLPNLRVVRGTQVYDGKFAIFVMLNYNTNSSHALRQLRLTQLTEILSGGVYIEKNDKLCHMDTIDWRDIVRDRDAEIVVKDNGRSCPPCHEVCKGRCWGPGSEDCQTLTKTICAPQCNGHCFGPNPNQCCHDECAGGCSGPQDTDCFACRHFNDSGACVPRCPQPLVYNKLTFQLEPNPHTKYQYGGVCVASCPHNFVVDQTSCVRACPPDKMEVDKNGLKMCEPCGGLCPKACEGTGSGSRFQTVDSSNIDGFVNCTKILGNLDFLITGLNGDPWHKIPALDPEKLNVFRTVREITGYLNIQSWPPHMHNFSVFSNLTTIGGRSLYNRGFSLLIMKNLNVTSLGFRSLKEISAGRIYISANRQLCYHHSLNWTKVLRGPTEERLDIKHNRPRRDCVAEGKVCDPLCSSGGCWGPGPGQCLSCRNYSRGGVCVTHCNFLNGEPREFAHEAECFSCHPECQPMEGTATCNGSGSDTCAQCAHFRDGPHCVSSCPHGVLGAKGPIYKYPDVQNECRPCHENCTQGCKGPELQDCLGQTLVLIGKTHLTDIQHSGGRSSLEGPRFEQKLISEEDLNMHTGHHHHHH
T2 sequence (H9ERZ8 entry or part of it): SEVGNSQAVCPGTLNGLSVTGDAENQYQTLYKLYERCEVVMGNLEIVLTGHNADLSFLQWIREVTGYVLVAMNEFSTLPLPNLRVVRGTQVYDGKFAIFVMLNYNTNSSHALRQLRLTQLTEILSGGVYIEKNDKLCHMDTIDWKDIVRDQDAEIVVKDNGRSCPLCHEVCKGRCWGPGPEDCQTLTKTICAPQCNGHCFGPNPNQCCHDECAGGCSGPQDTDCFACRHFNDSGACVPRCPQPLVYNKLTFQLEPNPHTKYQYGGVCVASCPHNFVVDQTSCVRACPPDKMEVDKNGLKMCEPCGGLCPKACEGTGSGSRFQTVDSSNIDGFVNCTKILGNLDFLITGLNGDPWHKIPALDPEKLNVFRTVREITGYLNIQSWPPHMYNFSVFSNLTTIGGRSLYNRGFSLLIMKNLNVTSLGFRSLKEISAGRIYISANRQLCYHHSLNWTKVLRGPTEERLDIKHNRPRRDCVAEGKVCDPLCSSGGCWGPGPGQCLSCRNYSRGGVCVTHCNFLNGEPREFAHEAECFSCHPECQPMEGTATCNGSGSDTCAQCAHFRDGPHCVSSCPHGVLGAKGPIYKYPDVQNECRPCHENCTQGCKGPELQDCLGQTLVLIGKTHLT
T3 sequence (Q61526 20-641 limits assumed): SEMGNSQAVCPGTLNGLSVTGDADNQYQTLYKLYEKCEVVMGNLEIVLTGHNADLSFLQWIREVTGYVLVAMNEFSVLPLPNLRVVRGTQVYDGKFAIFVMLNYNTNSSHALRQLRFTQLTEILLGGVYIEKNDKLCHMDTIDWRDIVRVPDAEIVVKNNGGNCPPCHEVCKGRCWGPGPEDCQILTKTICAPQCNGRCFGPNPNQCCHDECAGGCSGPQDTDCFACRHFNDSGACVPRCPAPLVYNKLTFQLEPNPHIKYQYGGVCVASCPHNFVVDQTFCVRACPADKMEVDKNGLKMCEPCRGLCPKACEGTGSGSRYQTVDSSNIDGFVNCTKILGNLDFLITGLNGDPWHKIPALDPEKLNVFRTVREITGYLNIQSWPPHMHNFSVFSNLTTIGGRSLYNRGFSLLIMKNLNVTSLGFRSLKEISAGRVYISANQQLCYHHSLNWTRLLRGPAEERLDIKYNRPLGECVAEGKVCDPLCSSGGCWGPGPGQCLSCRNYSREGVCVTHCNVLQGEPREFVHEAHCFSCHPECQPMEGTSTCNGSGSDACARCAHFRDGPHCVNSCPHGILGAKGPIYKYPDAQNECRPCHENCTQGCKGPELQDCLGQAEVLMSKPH

B1: anti-HER3 Antibody A (antibody, human IgG1, kappa, V domains shown)
VH: EVQLVESGGGLVKPGGSLRLSCAASGFSLDTYTMIWVRQAPGKGLEWVGIIYVTYNTYYANWAKGRFTISRDDSKNTLYLQMNSLKTEDTAVYYCTRWGDQNGLDIWGQGTLVTVSS
VL: DIQMTQSPSSLSASVGDRVTITCQSSQRVYGNKNLAWYQQKPGKAPKLLIYFARTLASGVPSRFSGSGSGTDFTLTISSLQPEDFATYYCQGTYYGTNWYVGFGGGTKVEIKR
notes: IgG type; human IgG1 Fc with C-terminal lysine deletion is stated only in embodiment language
Usually Kd stands for a measure of binding affinity in units of concentration. High values mean lower affinity, low ones higher affinity. For B1, the binding stoichiometry in experiment [1], in experiment [2] and in experiment [3] was ~2 moles of ligand per mole of antibody each time. For the same molecule, the Kd in experiment [4] came out at 1.6 nM; in experiment [5] it was 2.1 nM; in experiment [6], 3 nM.
